Molecular target: L973F mutant human insulin receptor B isoform, FLAG tagged (human)

B1: Shc (natural protein)
chain: MDLLPPKPKYNPLRNESLSSLEEGASGSTPPEELPSPSASSLGPILPPLPGDDSPTTLCSFFPRMSNLKLANPAGGRLGPKGEPGKAAEDGEGSAGAALRDSGLLPLLQDMNKLSGGGGRRTRVEGGQLGGEEWTRHGSFVNKPTRGWLHPNDKVMGPGVSYLVRYMGCVEVLQSMRALDFNTRTQVTREAISLVCEAVPGAKGATRRRKPCSRPLSSILGRSNLKFAGMPITLTVSTSSLNLMAADCKQIIANHHMQSISFASGGDPDTAEYVAYVAKDPVNQRACHILECPEGLAQDVISTIGQAFELRFKQYLRNPPKLVTPHDRMAGFDGSAWDEEEEEPPDHQYYNDFPGKEPPLGGVVDMRLREGAARPTLPSAQMSSHLGATLPIGQHAAGDHEVRKQMLPPPPCPGRELFDDPSYVNIQNLDKARQAGGGAGPPNPSLNGSAPRDLFDMKPFEDALRVPPPPQSMSMAEQLQGEPWFHGKLSRREAEALLQLNGDFLVRESTTTPGQYVLTGLQSGQPKHLLLVDPEGVVRTKDHRFESVSHLISYHMDNHLPIISAGSELCLQQPVDRKV
Q: Which Shc phosphorylation in L973F-IR cells against WT-IR cells, immunoblot, 1 to 100 nM insulin for 15 minutes (printed together with Gab-1 and ERK phosphorylation) does the source give for B1 here?
A: 2 to 4 fold
